Results on three molecules are retold here after publication PMC10397247.

Holding throughout (test): two-hybrid library CCmax;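 further: natural log of median RNA to DNA barcode read ratio; higher means stronger binding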
In one assay the target is T1, P10-AA.
T1 chain: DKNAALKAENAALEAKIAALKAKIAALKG
The following applies: mean of both orientations.

The target of a further assay is T2, O4-AA.
T2 chain: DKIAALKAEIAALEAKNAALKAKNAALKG
The following applies: mean of both orientations.

The target of another assay is T3, O3-AA.
T3 chain: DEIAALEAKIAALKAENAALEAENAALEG

A further assay deals with T4, O5-AA.
T4 chain: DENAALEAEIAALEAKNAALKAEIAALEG
The following applies: mean of both orientations.

In a further assay the target is T5, O6-AA.
T5 chain: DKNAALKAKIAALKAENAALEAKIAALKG
Particulars: mean of both orientations.

In a further assay the target is T6, O7-AA.
T6 chain: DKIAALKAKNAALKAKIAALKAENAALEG
Particulars: mean of both orientations.

The next assay concerns the target T7, O8-AA.
T7 chain: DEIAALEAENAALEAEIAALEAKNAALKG
Particulars: mean of both orientations.

The next assay concerns the target T8, P9-AA.
T8 chain: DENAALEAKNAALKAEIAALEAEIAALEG
Particulars: mean of both orientations.

Another assay has as its target T9, 4H3905-AA.
T9 chain: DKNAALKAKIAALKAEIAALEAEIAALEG
Particulars: mean of both orientations.

In a further assay the target is T10, 4H2888-AA.
T10 chain: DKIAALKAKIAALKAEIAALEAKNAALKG

For the next assay, the target named is T11, O13-AA.
T11 chain: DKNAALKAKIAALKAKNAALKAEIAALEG
The following applies: mean of both orientations.

The target in another assay is T12, O14-AA.
T12 chain: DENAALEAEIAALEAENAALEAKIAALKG
The following applies: mean of both orientations.

The target of the next assay is T13, 4H384-AA.
T13 chain: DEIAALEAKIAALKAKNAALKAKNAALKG
Particulars: mean of both orientations.

A further assay addresses T14, 4H451-AA.
T14 chain: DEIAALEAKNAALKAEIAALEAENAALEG
The following applies: mean of both orientations.

The next assay addresses T15, 4H_BCR.
T15 chain: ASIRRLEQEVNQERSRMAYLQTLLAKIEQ
Particulars: mean of both orientations.

The next assay addresses T16, 4H_APH.
T16 chain: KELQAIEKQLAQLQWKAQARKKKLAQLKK
Particulars: mean of both orientations.

The target in a further assay is T17, 4H3049-AA.
T17 chain: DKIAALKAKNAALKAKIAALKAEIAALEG
Particulars: mean of both orientations.

Another assay deals with T18, 4H43-AA.
T18 chain: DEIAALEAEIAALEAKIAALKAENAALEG
The following applies: mean of both orientations.

For a further assay, the target named is T19, 4H3587-AA.
T19 chain: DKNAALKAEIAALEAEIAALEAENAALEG
Particulars: mean of both orientations.

For another assay, the target named is T20, 4H4038-AA.
T20 chain: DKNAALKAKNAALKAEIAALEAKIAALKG
The following applies: mean of both orientations.

The target of a further assay is GCN2_T. The following applies: mean of both orientations.
The target in another assay is T21, 4H3625-AA.
T21 chain: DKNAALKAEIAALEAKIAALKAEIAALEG
The following applies: mean of both orientations.

Another assay has as its target 4H_GCN4.
In another assay the target is T22, O11-AA.
T22 chain: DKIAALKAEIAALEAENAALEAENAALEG
The following applies: mean of both orientations.

The target of the next assay is T23, 4H510-AA.
T23 chain: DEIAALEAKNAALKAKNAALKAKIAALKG
Particulars: mean of both orientations.

The next assay concerns the target T24, 4H337-AA.
T24 chain: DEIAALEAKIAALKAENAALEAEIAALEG
The following applies: mean of both orientations.

A further assay has as its target T25, 4H3590-AA.
T25 chain: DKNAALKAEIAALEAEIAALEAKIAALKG
Particulars: mean of both orientations.

The next assay deals with T26, 4H327-AA.
T26 chain: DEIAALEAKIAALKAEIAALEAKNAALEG
Particulars: mean of both orientations.

The next assay has as its target T27, 4H481-AA.
T27 chain: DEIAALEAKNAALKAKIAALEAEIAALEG
The following applies: mean of both orientations.

Another assay concerns the target T28, 4H2608-AA.
T28 chain: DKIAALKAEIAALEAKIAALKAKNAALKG
The following applies: mean of both orientations.

For another assay, the target named is T29, 4H3605-AA.
T29 chain: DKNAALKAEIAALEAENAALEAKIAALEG
The following applies: mean of both orientations.

A further assay deals with T30, 4H369-AA.
T30 chain: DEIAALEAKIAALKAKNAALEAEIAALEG

The target in another assay is T31, 4H55-AA.
T31 chain: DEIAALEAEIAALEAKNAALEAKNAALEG
The following applies: mean of both orientations.

Another assay concerns the target T32, 4H3664-AA.
T32 chain: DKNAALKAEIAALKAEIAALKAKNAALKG
The following applies: mean of both orientations.

For the next assay, the target named is T33, 4H2935-AA.
T33 chain: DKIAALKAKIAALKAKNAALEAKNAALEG
Particulars: mean of both orientations.

The target in another assay is T34, 4H2726-AA.
T34 chain: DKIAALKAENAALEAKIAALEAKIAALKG
The following applies: mean of both orientations.

The next assay deals with T35, 4H662-AA.
T35 chain: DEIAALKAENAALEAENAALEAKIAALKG
The following applies: mean of both orientations.

In the next assay the target is T36, 4H2614-AA.
T36 chain: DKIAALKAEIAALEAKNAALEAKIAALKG
The following applies: mean of both orientations.

The target of the next assay is T37, 4H3922-AA.
T37 chain: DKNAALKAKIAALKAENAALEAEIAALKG
Particulars: mean of both orientations.

In another assay the target is T38, 4H4033-AA.
T38 chain: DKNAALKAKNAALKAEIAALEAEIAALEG
The following applies: mean of both orientations.

The next assay addresses T39, 4H2536-AA.
T39 chain: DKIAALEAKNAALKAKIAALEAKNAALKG

Chain of 4H_GCN4 (chain, as listed by the source): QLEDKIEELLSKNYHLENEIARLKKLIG

With DEIAALEAKIAALKAENAALEAENAALEG [O3-AA], the interaction score in the assay with P10-AA is -1.06; with O4-AA, 1.99; with O3-AA, -0.811; with O5-AA it was -1.22; in the assay with O6-AA, -0.902; in the assay with O7-AA it was -1.4. Further, the interaction score with O8-AA is -1.37; with P9-AA it was -0.88.
Take DKIAALKAKIAALKAEIAALEAKNAALKG [4H2888-AA]: the interaction score was 1.91 with 4H3905-AA; 1.12 in the assay with 4H2888-AA; -0.966 with O13-AA; 1.71 with O14-AA; -0.941 with 4H384-AA; -0.857 with 4H451-AA. The interaction score is -2.06 with 4H_BCR; -2.17 with 4H_APH; -0.982 in the assay with 4H3049-AA; 1.89 with 4H43-AA; 1.25 with 4H3587-AA; 0.103 with 4H4038-AA. Further, the interaction score with GCN2_T is -1.24; with 4H3625-AA, 1.63; in the assay with 4H_GCN4, -1.53; with O11-AA, 0.766; with 4H510-AA it was -1.56; with 4H337-AA, 1.21. In the assay with 4H3590-AA, the interaction score was found to be 2.23.
Consider DKIAALEAKNAALKAKIAALEAKNAALKG [4H2536-AA], for which the interaction score with 4H327-AA was -1.02; with 4H481-AA it was -0.0556; in the assay with 4H2608-AA, -0.457; with 4H3605-AA, 1.29; with 4H369-AA, 0.0403; with 4H55-AA it was -1.17. The interaction score in the assay with O3-AA is -1.65; in the assay with 4H3664-AA it was -1.51; with 4H3625-AA, -1.16; in the assay with 4H2935-AA, -1.66; in the assay with 4H2726-AA it was 1.39; in the assay with 4H662-AA, -1.33. Further, the interaction score is -1.61 with 4H2614-AA, 0.635 with 4H3922-AA, -1.47 with 4H4033-AA and -0.663 in the assay with 4H2536-AA.
